Assay results: CN111718416A

Biological target: 硫氧还蛋白(Thioredoxin，Trx)
Experiment: indirect ELISA, Trx coated at 3 μg/ml, supernatant of transiently transfected CHO cells diluted 1000-fold, goat anti-mouse HRP

Chain of 硫氧还蛋白(Thioredoxin，Trx) (P0AA25 2-109): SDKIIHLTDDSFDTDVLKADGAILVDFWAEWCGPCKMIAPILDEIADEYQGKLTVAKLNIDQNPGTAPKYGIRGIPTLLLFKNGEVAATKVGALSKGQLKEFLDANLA

OD (450nm, 参考630nm): > 1 OD
B1: 实施例4的硫氧还蛋白的单克隆抗体(WT) (antibody, mouse IgG1, kappa, V domains shown)
VH: EVKLEESGGGLVQPGGSMKLSCAASGFTFSDGWMDWVRQSPEKGLEWVAELRNDAHNHRTYYAESLKGRFTISRDDSQSNVFLQMNSLRAEDTGIYYCTKRVPEGTGSWFAYWGQGTLVTVSA
VL: DIVMTQSPSSLGMSVGQKVTMSCKSSQSILNSINQKNYLAWYQQRPGQSPKLLVYFGSTRDSGVPDRFIGSGSGTDFTLTISSLQAEDLADYFCQQNYTTPPTFGGGTKLEIKR
